Values quoted from earlier work, collected in publication PMC4421034.

Target: Calmodulin (UniProt P0DP23)

Kd: 1 nM
Substance: MLCK (from UniProt Q15746)
